This is an account of results in US20090048324A1 (FOX CHASE CANCER CENTER, published 2009).

For series [1], the target named is T1, human PBGS variant F12L (human, UniProt P13716 1-330).
T1 construct: Hexamer in the crystal structure (PDB 1PV8); tetramer/hexamer mix in sedimentation equilibrium; also called F12L hexamer
T1 chain: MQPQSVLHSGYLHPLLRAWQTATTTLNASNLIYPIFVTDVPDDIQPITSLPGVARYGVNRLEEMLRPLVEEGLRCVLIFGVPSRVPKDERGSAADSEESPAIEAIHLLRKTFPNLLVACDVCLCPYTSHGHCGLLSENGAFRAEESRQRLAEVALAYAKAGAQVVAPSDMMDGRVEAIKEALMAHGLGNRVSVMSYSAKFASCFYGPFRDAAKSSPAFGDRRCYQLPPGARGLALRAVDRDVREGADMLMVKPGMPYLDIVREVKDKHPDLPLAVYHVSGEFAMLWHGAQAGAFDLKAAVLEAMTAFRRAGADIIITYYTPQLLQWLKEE
The series can be described thus: coexpression, Q-Sepharose chromatography.

Series [2] concerns the molecule itself. In words: purification and dialysis against magnesium.
Series [3] concerns the molecule itself. In words: cell-based or functional assay.

B1: wild type human porphobilinogen synthase (PBGS), parent construct N59/C162A (enzyme)
chain: MQPQSVLHSGYFHPLLRAWQTATTTLNASNLIYPIFVTDVPDDIQPITSLPGVARYGVNRLEEMLRPLVEEGLRCVLIFGVPSRVPKDERGSAADSEESPAIEAIHLLRKTFPNLLVACDVCLCPYTSHGHCGLLSENGAFRAEESRQRLAEVALAYAKAGAQVVAPSDMMDGRVEAIKEALMAHGLGNRVSVMSYSAKFASCFYGPFRDAAKSSPAFGDRRCYQLPPGARGLALRAVDRDVREGADMLMVKPGMPYLDIVREVKDKHPDLPLAVYHVSGEFAMLWHGAQAGAFDLKAAVLEAMTAFRRAGADIIITYYTPQLLQWLKEE
notes: Homo-oligomer, predominantly an octamer; also called Wt; WT
With B1, the binding result in series [1] is listed as “binds”.

B2: Pseudomonas aeruginosa porphobilinogen synthase (enzyme)
chain: MSFTPANRAYPYTRLRRNRRDDFSRRLVRENVLTVDDLILPVFVLDGVNQRESIPSMPGVERLSIDQLLIEAEEWVALGIPALALFPVTPVEKKSLDAAEAYNPEGIAQRATRALRERFPELGIITDVALDPFTTHGQDGILDDDGYVLNDVSIDVLVRQALSHAEAGAQVVAPSDMMDGRIGAIREALESAGHTNVRIMAYSAKYASAYYGPFRDAVGSASNLGKGNKATYQMDPANSDEALHEVAADLAEGADMVMVKPGMPYLDIVRRVKDEFRAPTFVYQVSGEYAMHMGAIQNGWLAESVILESLTAFKRAGADGILTYFAKQAAEQLRRGR
notes: Purified as a dimer without magnesium and converted to the octamer by dialysis against magnesium; also called P. aeruginosa PBGS
On to B2, for which the binding result in series [2] was “binds”.

B3: pea (Pisum sativum) porphobilinogen synthase (enzyme, Pisum sativum (pea), UniProt P30124 69-398, looked up)
chain: SLPIQRRPRRNRRSPALRSAFQETTLSPANFVYPLFIHEGEEDTPIGAMPGCYRLGWRHGLLEEVAKARDVGVNSVVLFPKIPDALKTPTGDEAYNEDGLVPRSIRLLKDKYPDLIIYTDVALDPYSSDGHDGIVREDGVIMNDETVHQLCKQAVAQARAGADVVSPSDMMDGRVGAMRVALDAEGFQHVSIMSYTAKYASSFYGPFREALDSNPRFGDKKTYQMNPANYREALTEMREDESEGADILLVKPGLPYLDIIRLLRDNSPLPIAAYQVSGEYSMIKAGGALKMIDEEKVMMESLLCLRRAGADIILTYFALQAARTLCGEKR
Take B3: in series [3], the “EC50 (read off the curve), specific activity against pea PBGS subunit concentration” value is around 0.03 µM.
